Data taken from IntAct's records for PubMed 23813973.

Target: dnm1l_human DNM1L (UniProt O00429)
Sequence (O00429 whole entry): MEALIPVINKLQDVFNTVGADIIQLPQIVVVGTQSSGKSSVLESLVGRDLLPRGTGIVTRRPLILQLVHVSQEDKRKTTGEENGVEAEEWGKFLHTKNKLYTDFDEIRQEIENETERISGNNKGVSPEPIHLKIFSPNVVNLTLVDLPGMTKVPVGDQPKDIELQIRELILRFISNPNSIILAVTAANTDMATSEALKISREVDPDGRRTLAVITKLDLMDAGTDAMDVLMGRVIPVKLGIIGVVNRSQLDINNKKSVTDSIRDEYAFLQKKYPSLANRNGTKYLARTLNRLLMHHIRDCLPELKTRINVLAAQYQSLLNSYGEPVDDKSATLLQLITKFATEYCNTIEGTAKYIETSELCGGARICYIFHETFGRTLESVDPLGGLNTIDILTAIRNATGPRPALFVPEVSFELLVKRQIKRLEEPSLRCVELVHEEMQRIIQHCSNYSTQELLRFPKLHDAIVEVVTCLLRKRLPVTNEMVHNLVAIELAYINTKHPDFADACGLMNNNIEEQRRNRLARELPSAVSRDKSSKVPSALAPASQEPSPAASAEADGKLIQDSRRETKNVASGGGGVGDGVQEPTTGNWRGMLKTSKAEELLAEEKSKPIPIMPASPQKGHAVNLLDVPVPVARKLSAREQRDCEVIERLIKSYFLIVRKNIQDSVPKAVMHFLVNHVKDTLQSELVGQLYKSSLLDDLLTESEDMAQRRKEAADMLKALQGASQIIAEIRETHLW

Substance: Leucine-rich repeat serine/threonine-protein kinase 2 (Homo sapiens), Q5S007 K1906A;D1994A;D2017A
- effect of a mutation on the interaction: decreasing interaction
